Test results reported in the DeepSol protein solubility set.

Assay: soluble on expression in E. coli; label from the status in PepcDB or PDB records
For “RTAAELMGRCSSKGLGISDIMFINERASRSEEEIREGLLHIWSVMEACVETSLKREGVLPGGLKVRRRSPDWLERLLKEDKDRNDPKYWQEWVNLIALAVNEENASGGRVVTAPTNGAAGIIPAVLYYALNYAPGMDKASQADKDDVVVKFLLAAGAVGVLYKEQASISGAEVGCQGEVGSASSMAAAGLAEVMGGSPGQVENAAEIAMEHNLGLTCDPIGGLVQIPCIERNAIAAAKAINAAKMALWGDGTHRVSLDEVIVTMRETGKDMSSKYKETAMGGLAVN”, the “soluble on expression in E. coli” value was “not soluble”.
With “MGSDKIHHHHHHMSDNLPKKQPRTAPPEARREQLIDATITAISTYGLSGTTLAKVTAEAGLSLGLVNFHFKSKEALLTATLTHLADEHRALWFTRSSQPDVSAADKLKLIVDAQFHAKICNRRKLSVWFAFFGESRPRKAYRELTGPLDEERQIATSRLCADIIAEGGYSGIDSDTVSAMLESLFDGFWLNILMYPDRFTRQSAKAQVLSYLRLCFPQHFTCLDAETFA” the “soluble on expression in E. coli” value was “not soluble”.
For “MDQALYSLETRFEQFQRYEQIFGFLFDLKKLQSASDDSLMASCTNLKDALTHGTHSDILASDLFYELKILREALPKEVRRPIEVLDFLQKVEGCYPNSWIAYQVLLTIPVSVASAERSFSKLKLIKSYLRSSMSQERLSDLAILSIERALVREVDFERLANDFVGKKGRRITL”, the “soluble on expression in E. coli” value was “soluble”.
With “MANSLAIIADPKTGKTYKREIPSERMSSLIGRKIGEEVDGVFFDLVGYKMKITGGSSVDGFAMRPDLQTQGKKQILVKYTSGYRGKNGIRKRITARGSIIGSDITQINLKITQYGPTLEHHHHHH” the “soluble on expression in E. coli” value was “not soluble”.
For “MTSSPARNGDISFWYADIGGVPQPRPPLAGDARADVCIVGAGYTGLWTALYLKEQAPELEVLVLEKEFAGFGASGRNGGWLTGSFAWTHDRYLSTGTAEGVRAMVTAMSGTVDEVIRVAEAEGIDADIHRTDELMVAVTPAQRARAEAEVRHRQSWGEERVSFLEADAVARRIRIPKAEGAMVVGGVARVQPAKLVRGLAEAAERRGVRIAEGTEVLGIAPGRVETRRGTVQAPIILRATEGFTATLPGAKRDWLPLNSAQIVTEPLPPEIWDRIGWEGAEILGDMANAYCYCQRTREGRIAVGARGRAYRMASRIDERGEADAVTVAHLLKRLQRHFPAAADARIDHSWCGVLGVPRDWCATVGLDPTTGIGWAGGYVGVGVSTSNLAGRTLADLALKRDTALTRLPWVNRRVRRWEPEPLRWLGVRGMYRLLEAADRREEAGGPPSWLAALGHRIAGRLEHHHHHH”, the “soluble on expression in E. coli” value was “not soluble”.
With “MNMKTIEDVFIHLLSDTYSAEKQLTRALAKLARATSNEKLSQAFHAHLEETHGQIERIDQVVESESNLKIKRMKCVAMEGLIEEANEVIESTEKNEVRDAALIAAAQKVEHYEIASYGTLATLAEQLGYRKAAKLLKETLEEEKATDIKLTDLALNNVNKKAENKA” the “soluble on expression in E. coli” value was “soluble”.
In the case of “MTQTFADQKRKTVETAEFTEDGRYKRKVRSFVLRTGRLSEFQRNMMNDNWGTLGLDYQTEPFDFAKIYGNDNPVVLEIGFGMGKSLVDMAFANPDKNYLGIEVHTPGVGACIAYAVEKGVTNLRVICHDATEILRDSIADGALGGLQLFFPDPWHKAKHHKRRIVQPHFVTQVIQKLGENGFIHMATDWENYAEQMLEVLSANTDLVNTSKNGDYIPRPDFRPLTKFEARGYKLGHGVWDLYFVKK”, the “soluble on expression in E. coli” value is reported as “not soluble”.
For “VTWKGSGQETVGAEPTLWAISDLHTGHLGNKPVAESLYPSSPDDWLIVAGDVAERTDEIRWSLDLLRRRFAKVIWVPGNHELWTTNRDPMQIFGRARYDYLVNMCDEMGVVTPEHPFPVWTERGGPATIVPMFLLYDYSFLPEGANSKAEGVAIAKERNVVATDEFLLSPEPYPTRDAWCHERVAATRARLEQLDWMQPTVLVNHFPLLRQPCDALFYPEFSLWCGTTKTADWHTRYNAVCSVYGHLHIPRTTWYDGVRFEEVSVGYPREWRRRKPYSWLRQVLPDPQYAPGYLNDFGGHFVITPEMRTQAAQFRERLRQRQSR”, the “soluble on expression in E. coli” value was “not soluble”.
With “ATTLYLTRHGETKWNVERRMQGWQDSPLTEKGRQDAMRLGKRLEAVELAAIYTSTSGRALETAEIVRGGRLIPIYQDERLREIHLGDWEGKTHDEIRQMDPIAFDHFWQAPHLYAPQRGERFCDVQQRALEAVQSIVDRHEGETVLIVTHGVVLKTLMAAFKDTPLDHLWSPPYMYGTSVTIIEVDGGTFHVAVEGDVSHIEEVKEV” the “soluble on expression in E. coli” value was “soluble”.
With “MSLNRVLDILKDRSLTYHQQIKDLAAYAESTIEVLNIDDETKKLIDEGCICTLFEGNAPFRPRYIIPDYSLLMEKGCEFLNLSVPEDIWEATNNLLIFYKHVPSITTFPVYLGNIDELLEPFIEDEREAKRAIKLFLKHIDRTLTDSFVHANIGPRETVAGRLILESMDELQCAVPNLSMKYDLENTPESFINLCAKVALSTAKPSFANHKMDVKSFGTDRYAIASCYNGFHIGGGGYTLVRIKLNEVAKKATSVEDFLENVLPYVSTKMIQYIDERIRFLVEETQFFTSNFLVKEGFIQKKLFTGMFGVVGLAEAVNTLLGAEKQSDRFGYSEKANKLGLRIIEKLNKIVSEHEAKHVNCFGGHYVLHAQVGIDLDQNVSPGCRIPVGEEPELFNHIMQSAPFHKYFYNGIGDIFVFEDTYNDHPEALVDIIKGAFNSGIRYMSVYGSGADVVRVTGYLAKRSEVEKLERGEAVLNNTDLFAMGAKNNCHAFERKIREGHHHHHH” the “soluble on expression in E. coli” value was “soluble”.
For “MGSDKIHHHHHHMTFNVPDVKPLINDEFAGEAPKRALSYIANKRSAGMPVAGTYCGYAPMEVIRAVGAVPAVLCAFANKTIPAAEAVLPANLCPLIKSSYGFILTDTCPFFALSDAVVAETTCDGKKKMFELIFSHRPMFVMDLPQLPDEVEARANWATMISKLKGFLENTFGTFGTSEGIEAEIQATNIKNRLMRRVFGYAEKKPPLLSWSELYELCFLAQVATTEDLLPVFKEVFERLEEREAKGIYYGAPSSPRVLVTGCPVGGDSTKVFRIIEEAGGVVVAMDSCSGMKPFIADIEEKTGNPIDSVARHYLEIPCSCMTPNTRRLTELDKALAAFQPDAVVEVVLHACHSYNIEAIKIMNYLKEKHNLPYLKIVTDYSEGDVEQIRTRVEALLESI”, the “soluble on expression in E. coli” value was “not soluble”.
In the case of “MRYFPLFLDLTNKPVLVVGGGEVACRKIDALLRADAKVTVISPQVAPALQAWIEQGKCHWIQHFYSSHWLDKRYVQVWATTDNPELNHQVYKDAKEQGILVNVVDDQPYCDFITPSMIERGRIQLAISSGGASPVLIRNIRETLEAVLAQNLALLADFGASKRNSIKDFLPSVDLRRQFWERFFAHPEVKNAQDRESLERIYIHLLTQSTDKVSATTWIEFGADVELLSLKALRYMQQAELVLHTQDCPFVFVDLCRRDAQRQSFNSSVELSTLLLQAQQETQNVCVLIPSGSSEYALLQGKATVLKMAQQG”, the “soluble on expression in E. coli” value is reported as “not soluble”.
For “MTVTDRIFQNVAELSVPNFFITVEFSVMGNEMPEHIESFVLEKYQAILHGANGRKFVYTEGGWRLFFTFFPTDKVVDERYALKNKVQMKFHK”, the “soluble on expression in E. coli” value was “not soluble”.
With “KMETAFDIERTMGRRIEYVSNILAVSESELGSLYSYDIMIDLGEEGKAKTPEALRALDSIARHAEAYSLTKRTTSILNILKDLNQTLHDGDQAYYSIPGDAEEVAQQLLLYENAGGSEAESWIDYEYRRLRLKVEMTSYNSGEAEWELQDITDYARKLFPEAEITPVGSLPQFTTMMQYVVRGQ” the “soluble on expression in E. coli” value was “not soluble”.
In the case of “VFIEERLEELSTFADSSDLTKIEYGNKKIGIITSGIAYNYAKEVIPDASFLKFGMSYPLPEEKIKEFVENCDKVYVFEELEPIFEQKIKSMGLNVIGKEIFPIIGELSSEIIRNALLNESKEVIDKFDELPQRPPVLCPGCHHRGPFYVLKKLKLHVAGDIGCYTLGGFGPLNAIDTTICMGASIGMAH”, the “soluble on expression in E. coli” value is reported as “not soluble”.
In the case of “MLEGAKFNVLAVGNHHNNDNNYYAFTQEFYQKLNEGSNMSMESMQTSNAGGSVSMSVDNSSVGSSDALIGHPGLKPVRHYSLSVGQSVFRPGRVTHALNDDALAQALMDTRYPTEGLTNYDEWTIDLRKLNMGPAFAQGAFGKLYKGTYNGEDVAIKILERPENSPEKAQFMEQQFQQEVSMLANLKHPNIVRFIGACRKPMVWCIVTEYAKGGSVRQFLTRRQNRAVPLKLAVKQALDVARGMAYVHGRNFIHRDLKSDNLLISADKSIKIADFGVARIEVQTEGMTPETGTYRWMAPEMIQHRAYNQKVDVYSFGIVLWELITGLLPFQNMTAVQAAFAVVNRGVRPTVPNDCLPVLSDIMTRCWDANPEVRPCFVEVVKLLEAAETEIMTTARKARFRCCLSQPMTID”, the “soluble on expression in E. coli” value is reported as “not soluble”.
For “LTFSLNFTNKSNDIYGTGWLFDWKGDEKALGIDGSFVPSITSNIDNSLLKDDQFTVYLATNLHVADALRNDQDYEPYKKDQNKQDFTENTKTEFFSLGK”, the “soluble on expression in E. coli” value was “soluble”.
For “MLLEIKDLVYKASDRIILDHISLKVDKGESIAIIGPSGSGKSTFQKQICNLFSPTSGELYFKGKPYNDYDPEELRQRISYLMQQSDLFGETIEDNMIFPSLARNDKFDRKRAKQLIKDVGLGHYQLSSEVENMSGGERQRIAIARQLMYTPDILLLDESTSALDVNNKEKIENIIFKLADQGVAIMWITHSDDQSMRHFQKRITIVDGQISNTEELNQHE”, the “soluble on expression in E. coli” value was “soluble”.
In the case of “MLFFSSAMSKHKLTFTKLSDCMKYLDLAATWAEEEWGYIRNKGLEFRKKILSDLKEHTYIGTFNGQPIAMFVLFDKEMSPEFNHGRFKPPVVNELMYVYIDKPYRGLGFGKQIIDEAKQLASDSKSEYIMLDTLKPGLNRFYEKSGAKVIAENQLFSHPTDVLTIKI”, the “soluble on expression in E. coli” value is reported as “not soluble”.
In the case of “MAHHHHHHMSSSDLIKEDDYVFISGRGLNKIVQIKKDVTVRLGRSGAALATTLIGIRYGGVCHLDHARKKFVESDEYPDLDITEVGDGEEVKDNRDLVDDNTNQQLSNDEVAAIRRDKGLDELLQALVEKSASYRTKTNFAQEKYLKKKQKKYGTLFKVERVTVDNLAELHVPTINPSDNTSEDARCLRLRADTVALILHHSDVHHNSRVILYEKTNGVLPASLLTRMSDEGRIFQILDKNAQPSPTTAVKVLKLPLVKERWKAVPRNRGFLEGLEEPDKDSARDTAEAAEKNAAGAAAGKGLQRQDICASSTQWVKGLEARQLLLESSADSLVICDDEAPQRAVADLLPFLAFGGHIVVYSPFLEDLTGIFLALRDDCVNLQISETWYRHHQVLPKRTHPTVNMSTAAGYLLTAIKVCRNPAAPRLTAAVTAPALSATTHAGHKRSATEELNGMASKKSATREASDEGNAN”, the “soluble on expression in E. coli” value is reported as “not soluble”.
In the case of “MLVRKVCQNFFQNALAPFHKYRQSALMDATVALINGASLTLTSIGRFLPGQAQVKNKIKRVDRLLGNESLHRDIPLIFNNIIAMLTRKLSLCVVAVDWSGYHSHEYHILRASLICDGRSIPLLSQIVPSAEQQSEQIHKTFLNALARAVNPDARVILEHHHHHH”, the “soluble on expression in E. coli” value is reported as “not soluble”.
In the case of “MNGTKQQRRRGDTRQRIQDVALGLFAEQGYEKTSLREIAESLDVTKAALYYHFKTKEEILVSIFEDLSRPLEDLIEWGREQPHTLETKQEIIRRYSEALAGAAPLFRFMQENQATVRDLRIGELFKHRMFGLRDILMDPEADLVDQVRCISALFTLHAGMFVLRDLEGDPEEQRAAVLEVATDLITQAHRGAAGA”, the “soluble on expression in E. coli” value is reported as “not soluble”.
With “IKPTYQGHVTVIIGRNDSKSSTNEQYNDVMMSQNLTKTYAQIAESRSVASKTVSKLSNGTTIDQVSKVVSVTPETGTQIIDITANAKSPEEAADLANDFSDSFVAVSKEVYTAGDARIIDRATAPKSPIKPKK” the “soluble on expression in E. coli” value was “not soluble”.
